Results: the Human Domainome abundance scans (Beltran et al. 2025)

B1: Zinc finger MYM-type protein 2, residues 463 to 506; numbered along this chain, Q9UBW7 (parent)
chain: IMNCCEQCGEYLPSKGAGNNVLVIDGQQKRFCCQSCVSEYKQVG

Variants of: B1
Assay: abundance fitness (aPCA) (normalised: wild type 0, dead -1); higher = more abundant; growth selection in yeast, the domain comes from the species named
Conditions: Homo sapiens

Abundance fitness, by site and new letter:
V43: H -0.361, T -0.026, G 0.039, R -0.039, S -0.159, A 0.001, P 0.144, L -0.222, M -0.218, W -0.296, Q -0.055, E -0.067, D -0.123
S38: A 0.019, I -0.106, G -0.024, W -0.197, T -0.113, K -0.025, P -0.329, L -0.038, Q -0.01, D -0.081, E 0.062, M -0.038, H -0.183, C -0.108
E39: G 0.095, W -0.478, Y 0.032, S 0.054, P -0.285, K 0.33, V 0.086, A 0.09, C 0.204, M 0.087, T 0.093, L -0.265, Q -0.144
Y40: E 0.067, V -0.108, D -0.057, F -0.334, N -0.309, R -0.037, P 0.192, I -0.249, S 0.121, L -0.163, G 0.057, K -0.057, C 0.429, M -0.167, Q 0.067, W 0.002, T 0.11
Q34: Y -0.615, W -0.226, S 0.009, V 0.036, P -0.033, L -0.223, R -0.232, N -0.028, M 0.044, K -0.213, T -0.031, I -0.448
G44: R -0.058, Q -0.471, W -0.189, P -0.217, L -0.262, V -0.144, C -0.157, E -0.172, T -0.118
Q42: M -0.119, P -0.169, W -0.398, L -0.101, T 0.002, H -0.08, V 0.151, K -0.045, N 0.438, E -0.102, S -0.023, G 0.076, R 0.063, A 0.109
S35: L -0.136, I 0.024, W -0.114, A -0.072, R 0.085, V -0.092, G 0.024, M -0.087, C -0.113, Y -0.08, Q -0.065, P -0.058, E 0.006, H -0.091, F -0.226, K 0.156
K41: D 0.193, V -0.221, L -0.122, M -0.059, Q 0.006, R 0.03, Y -0.41, P 0.014, F -0.285, T 0.209, S 0.027, G 0.042, A -0.096
C36: E -0.376, L -0.423, V -0.463, Y -0.445, I 0.163, P -0.168, S -0.45, H -0.341, D -0.262, T -0.106, F -0.665, Q -0.201, G -0.303, R -0.37, N -0.273
V37: P -0.135, T 0.049, A -0.063, D -0.227, Q -0.024, C 0.018, E 0.109, K -0.101, M 0.181, F -0.259, R -0.112, W -0.093, G -0.226, S -0.161
